Changes are numbered by the printed parent chain. Names may count otherwise.
T1: CD20 protein on the surface of B-cells (Raji cells, a Burkitt's lymphoma cell line) (human, UniProt P11836 1-297)
T1 construct: also called CD20 antigen; B lymphocyte antigen CD20
T1 sequence: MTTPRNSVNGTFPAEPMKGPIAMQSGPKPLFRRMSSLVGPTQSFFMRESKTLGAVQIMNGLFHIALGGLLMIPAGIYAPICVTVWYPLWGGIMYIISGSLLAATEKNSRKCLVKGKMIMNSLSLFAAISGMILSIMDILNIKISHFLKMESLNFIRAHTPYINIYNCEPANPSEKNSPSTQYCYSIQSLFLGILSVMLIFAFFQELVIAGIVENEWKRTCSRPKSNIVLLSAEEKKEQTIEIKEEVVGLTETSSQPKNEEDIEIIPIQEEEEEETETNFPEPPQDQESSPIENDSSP

B1: CD20-binding protein with M1/M2/M3/M4/M7 modifications (V3Q, A9S, I10S, V59S, L153D in the rituximab light chain) (antibody, human IgG1, kappa, V domains shown)
VH: QVQLQQPGAELVKPGASVKMSCKASGYTFTSYNMHWVKQTPGRGLEWIGAIYPGNGDTSYNQKFKGKATLTADKSSSTAYMQLSSLTSEDSAVYYCARSTYYGGDWYFNVWGAGTTVTVSA
VL: QIQLSQSPSSLSASPGEKVTMTCRASSSVSYIHWFQQKPGSSPKPWIYATSNLASGVPSRFSGSGSGTSYSLTISRVEAEDAATYYCQQWTSNPPTFGGGTKLEIKR
notes: Heavy chain unmodified; whole IgG as for the wild type; also called M1/2/3/4/7
B2: CD20-binding protein with the M9 modification (Y101S in the rituximab Fab heavy chain, in the CDR) (antibody, human IgG1, kappa, V domains shown)
VH: B1 VH with Y101S
VL: B1 VL with Q3V, S9A, S10I, S59V
notes: Whole IgG as for the wild type; also called M9 (Y101S); CDR mutation

Target: T1, CD20 protein on the surface of B-cells …
Assay: indirect immunofluorescence on Raji cells, flow cytometry
Experimental: Binding affinity of an antibody to its target antigen can be an indicator of antibody efficacy. An indirect immunofluorescence cell-based binding assay was conducted to determine the dissociation constant (KD) between select CD20-binding proteins of the invention and the targeted antigen (CD20 protein on the surface of B-Cells). […] Because of this, the raw data was fitted to the following equation: […]

| Binder | binding result |
| --- | --- |
| B1 | binds |
| B2 | no binding |

— US20150239977A1 (MIT, published 2015)
